How the values were obtained:
[1] = target: MalE-fibrinogen Aα534-610 (variant 8) (human); experiment: SPR; lysinSM1, lysin102-198 or plasminogen on recombinant variant 8 (Aα534-610); otherwise as for fibrinogen
[2] = target: purified human fibrinogen (human) (UniProt P02671); experiment: ELISA; competition: immobilised fibrinogen (0.1 μM), 0 to 100 μM lysinSM1, lysin102-198 or lysin1-102, and 100 nM plasminogen; bound plasminogen detected with anti-plasminogen antibody
[3] = target: MalE-fibrinogen Aα534-610 (variant 8) (human); experiment: ELISA; fibrinogen Aα variants (0.1 μM in PBS) immobilised in 96-well plates; FLAG-lysin or plasminogen in PBS-T over a range of concentrations, 1 h 37°C; anti-FLAG or anti-plasminogen; non-linear regression, apparent KD
[4] = target: purified human fibrinogen (human) (UniProt P02671); experiment: SPR; Reichert-4 SR7500DC; human fibrinogen (0.1 μM, sodium acetate pH 5.5) covalently immobilised on a PEG gold chip; analytes in PBS, 30 μl/min, 3 min association and dissociation; KD from response at equilibrium against concentration
[5] = target: T1, purified human fibrinogen (human, UniProt P02671 36-866; P02675 45-491; P02679 27-453, plasma fibrinogen hexamer (AαBβγ)2, 29 disulfides, glycosylated; fibrinopeptides A and B present; Aα taken as the circulating 610-residue form, Bβ starts at pyroGlu, γ as the major γA form (411 aa)); experiment: SPR; plasminogen (100 nM) over immobilised fibrinogen after PBS, and again after bound lysinSM1 was removed with glycine buffer pH 2.0; conditions: both partners purified
T1 sequence (P02671 36-866, chain 1 of 3): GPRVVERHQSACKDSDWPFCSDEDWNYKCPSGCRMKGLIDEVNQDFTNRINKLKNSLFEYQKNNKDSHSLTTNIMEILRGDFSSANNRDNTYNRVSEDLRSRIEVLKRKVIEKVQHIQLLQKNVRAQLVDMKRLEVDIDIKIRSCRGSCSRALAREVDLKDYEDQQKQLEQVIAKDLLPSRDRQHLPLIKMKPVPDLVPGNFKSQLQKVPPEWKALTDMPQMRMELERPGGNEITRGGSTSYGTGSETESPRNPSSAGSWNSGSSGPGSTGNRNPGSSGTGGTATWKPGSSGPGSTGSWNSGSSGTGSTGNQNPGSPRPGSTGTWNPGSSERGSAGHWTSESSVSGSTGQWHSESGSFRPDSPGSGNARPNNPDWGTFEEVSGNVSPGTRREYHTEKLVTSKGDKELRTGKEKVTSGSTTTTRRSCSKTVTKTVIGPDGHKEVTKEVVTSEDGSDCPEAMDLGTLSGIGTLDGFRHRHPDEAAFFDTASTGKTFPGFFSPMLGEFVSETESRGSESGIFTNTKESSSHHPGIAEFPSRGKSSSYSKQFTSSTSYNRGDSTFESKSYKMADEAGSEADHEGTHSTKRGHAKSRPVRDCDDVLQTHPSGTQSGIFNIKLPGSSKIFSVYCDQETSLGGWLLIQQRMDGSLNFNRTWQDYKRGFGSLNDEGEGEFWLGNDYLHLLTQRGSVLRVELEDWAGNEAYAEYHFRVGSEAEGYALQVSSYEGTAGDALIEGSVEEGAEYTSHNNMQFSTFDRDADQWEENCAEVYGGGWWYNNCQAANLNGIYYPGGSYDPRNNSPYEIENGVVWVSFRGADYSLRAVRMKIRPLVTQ
T1 sequence (P02675 45-491, chain 2 of 3): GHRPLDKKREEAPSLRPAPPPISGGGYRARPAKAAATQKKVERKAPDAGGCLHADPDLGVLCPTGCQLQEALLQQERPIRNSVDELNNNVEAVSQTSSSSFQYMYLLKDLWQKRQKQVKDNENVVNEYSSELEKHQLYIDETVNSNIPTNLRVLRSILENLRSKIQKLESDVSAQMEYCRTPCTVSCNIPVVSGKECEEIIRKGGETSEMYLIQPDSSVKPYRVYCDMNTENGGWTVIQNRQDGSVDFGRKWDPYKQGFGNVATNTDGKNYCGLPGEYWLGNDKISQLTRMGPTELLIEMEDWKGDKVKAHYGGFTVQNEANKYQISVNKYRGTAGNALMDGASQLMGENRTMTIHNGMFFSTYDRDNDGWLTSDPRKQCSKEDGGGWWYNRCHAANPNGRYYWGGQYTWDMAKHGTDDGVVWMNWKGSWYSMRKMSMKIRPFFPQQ
T1 sequence (P02679 27-453, chain 3 of 3): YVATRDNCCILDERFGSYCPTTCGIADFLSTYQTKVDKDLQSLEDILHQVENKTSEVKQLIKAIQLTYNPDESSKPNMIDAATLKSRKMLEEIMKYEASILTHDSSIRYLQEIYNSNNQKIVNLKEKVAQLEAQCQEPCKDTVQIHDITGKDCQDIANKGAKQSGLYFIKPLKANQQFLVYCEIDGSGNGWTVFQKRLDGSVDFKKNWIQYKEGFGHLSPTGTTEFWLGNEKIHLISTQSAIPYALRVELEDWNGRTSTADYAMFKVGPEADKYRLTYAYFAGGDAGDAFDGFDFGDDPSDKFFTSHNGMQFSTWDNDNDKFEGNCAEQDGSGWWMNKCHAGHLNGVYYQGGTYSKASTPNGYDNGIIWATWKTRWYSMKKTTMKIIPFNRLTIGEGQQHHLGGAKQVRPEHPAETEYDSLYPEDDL

[6] = target: MalE-fibrinogen Aα248-376 (variant 5) (human); experiment: ELISA; fibrinogen Aα variants (0.1 μM in PBS) immobilised in 96-well plates; FLAG-lysin or plasminogen in PBS-T over a range of concentrations, 1 h 37°C; anti-FLAG or anti-plasminogen; non-linear regression, apparent KD
[7] = target: T1, purified human fibrinogen; experiment: SPR; Reichert-4 SR7500DC; human fibrinogen (0.1 μM, sodium acetate pH 5.5) covalently immobilised on a PEG gold chip; analytes in PBS, 30 μl/min, 3 min association and dissociation; KD from response at equilibrium against concentration; conditions: both partners purified

Sequence of purified human fibrinogen (human) (P02671 36-866, chain 1 of 3): as the sequence (P02671 36-866, chain 1 of 3) above
Sequence of purified human fibrinogen (human) (P02675 45-491, chain 2 of 3, further chain): as the sequence (P02675 45-491, chain 2 of 3) above
Sequence of purified human fibrinogen (human) (P02679 27-453, chain 3 of 3, further chain): as the sequence (P02679 27-453, chain 3 of 3) above

For “FLAG-tagged lysin102-198 (domain or fragment)”, the Kd [1] was 17.3 µM, the percent inhibition of plasminogen binding to immobilised fibrinogen [2] was > 75% and the Kd [3] was 48 µM. The Kd [4] was 23.2 µM.

For “recombinant FLAG-tagged lysinSM1 (natural protein)”, the Kd [1] was 32.3 µM, the percent inhibition of plasminogen binding to immobilised fibrinogen [2] was > 75% and the Kd [4] was 31.5 µM.

B1: human plasminogen (natural protein, UniProt P00747 20-810, looked up)
chain: EPLDDYVNTQGASLFSVTKKQLGAGSIEECAAKCEEDEEFTCRAFQYHSKEQQCVIMAENRKSSIIIRMRDVVLFEKKVYLSECKTGNGKNYRGTMSKTKNGITCQKWSSTSPHRPRFSPATHPSEGLEENYCRNPDNDPQGPWCYTTDPEKRYDYCDILECEEECMHCSGENYDGKISKTMSGLECQAWDSQSPHAHGYIPSKFPNKNLKKNYCRNPDRELRPWCFTTDPNKRWELCDIPRCTTPPPSSGPTYQCLKGTGENYRGNVAVTVSGHTCQHWSAQTPHTHNRTPENFPCKNLDENYCRNPDGKRAPWCHTTNSQVRWEYCKIPSCDSSPVSTEQLAPTAPPELTPVVQDCYHGDGQSYRGTSSTTTTGKKCQSWSSMTPHRHQKTPENYPNAGLTMNYCRNPDADKGPWCFTTDPSVRWEYCNLKKCSGTEASVVAPPPVVLLPDVETPSEEDCMFGNGKGYRGKRATTVTGTPCQDWAAQEPHRHSIFTPETNPRAGLEKNYCRNPDGDVGGPWCYTTNPRKLYDYCDVPQCAAPSFDCGKPQVEPKKCPGRVVGGCVAHPHSWPWQVSLRTRFGMHFCGGTLISPEWVLTAAHCLEKSPRPSSYKVILGAHQEVNLEPHVQEIEVSRLFLEPTRKDIALLKLSSPAVITDKVIPACLPSPNYVVADRTECFITGWGETQGTFGAGLLKEAQLPVIENKVCNRYEFLNGRVQSTELCAGHLAGGTDSCQGDSGGPLVCFEKDKYILQGVTSWGLGCARPNKPGVYVRVSRFVTWIEGVMRNN
notes: plasminogen, human; also called purified plasminogen; recombinant human plasminogen
With B1 the Kd [1] was 17.2 µM, the “KD after bound lysinSM1 was removed with glycine buffer pH 2.0” value [5] was 1.68e-05 M and the Kd [5] was 19.2 µM. It also gave a Kd [6] of 85 µM, a Kd [3] of 18 µM and a Kd [7] of 10.4 µM.

From article PMC8263008, “Inhibition of Fibrinolysis by Streptococcal Phage LysinSM1” (mBio, 2021)
